From the supplement of paper PMC9112550, “Optimization of the antimicrobial peptide Bac7 by deep mutational scanning” (BMC Biology, 2022) come the findings set out here.

The data set concerns Escherichia coli TOP10. Kind of data set: shrunken log2 fold change of peptide-encoding DNA abundance (4.5 h post-induction vs induction); higher = less antimicrobial activity (less host growth inhibition). Conditions: time post-induction: 4.5 h; library: site-saturation at positions 5, 18, 19, 20.
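Note: peptides expressed intracellularly from a pBAD plasmid library in pooled LB shake-flask culture, induced with 0.3% L-arabinose, DNA abundance read by NGS, three biological replicates, DESeq2 with apeglm shrinkage.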

As for RRIRERPPRLPRPRPRPYEQPRP, the “shrunken log2 fold change” value was -0.395.

Regarding RRIRVRPPRLPRPRPRPLMRPRP, the “shrunken log2 fold change” value turned out to be 0.515.

Regarding RRIRQRPPRLPRPRPRPWGVPRP, the “shrunken log2 fold change” value was 0.122. On to RRIRRRPPRLPRPRPRPSVLPRP, for which the “shrunken log2 fold change” value is -0.0526. Regarding RRIRRRPPRLPRPRPRPVVLPRP, the “shrunken log2 fold change” value was -0.0732. With RRIRCRPPRLPRPRPRPDELPRP, the “shrunken log2 fold change” value is -0.044. Take RRIRKRPPRLPRPRPRPHVQPRP: the “shrunken log2 fold change” value is -0.0829. Regarding RRIRARPPRLPRPRPRPSRCPRP, the “shrunken log2 fold change” value is 0.228. For the sequence RRIRCRPPRLPRPRPRPSNFPRP, the “shrunken log2 fold change” value was -0.627. With RRIRQRPPRLPRPRPRPWSFPRP the figure was -0.026. Consider RRIRIRPPRLPRPRPRPFNIPRP, for which the “shrunken log2 fold change” value was -0.93. RRIRPRPPRLPRPRPRPCCRPRP: the “shrunken log2 fold change” value is -0.339. RRIRPRPPRLPRPRPRPFHGPRP: the “shrunken log2 fold change” value is -0.252. As to RRIRQRPPRLPRPRPRPHNHPRP, the “shrunken log2 fold change” value is -0.811. RRIRVRPPRLPRPRPRPHMAPRP: the “shrunken log2 fold change” value is -0.339. The result for RRIRCRPPRLPRPRPRPGWVPRP reads 0.513; that for RRIRTRPPRLPRPRPRPTCCPRP, -0.0411.

For the sequence RRIRYRPPRLPRPRPRPQQPPRP, the “shrunken log2 fold change” value was determined as 0.0699. With RRIRHRPPRLPRPRPRPELTPRP the figure was 0.054; with RRIRIRPPRLPRPRPRPKMRPRP, 0.742; with RRIRKRPPRLPRPRPRPFDVPRP, 0.0305. For the sequence RRIRVRPPRLPRPRPRPSCQPRP, the “shrunken log2 fold change” value is -0.643.

As to RRIRCRPPRLPRPRPRPLFKPRP, the “shrunken log2 fold change” value is -0.475. Regarding RRIRMRPPRLPRPRPRPVYLPRP, the “shrunken log2 fold change” value was -0.683. With RRIRYRPPRLPRPRPRPGKPPRP the figure was -0.0225. In the case of RRIRERPPRLPRPRPRPETTPRP, the “shrunken log2 fold change” value was 0.165.

RRIRRRPPRLPRPRPRPRKEPRP: the “shrunken log2 fold change” value was 0.4. Regarding RRIRGRPPRLPRPRPRPWWVPRP, the “shrunken log2 fold change” value was 0.0839.

Consider RRIRIRPPRLPRPRPRPYTHPRP, for which the “shrunken log2 fold change” value is -1.09. Regarding RRIRKRPPRLPRPRPRPNECPRP, the “shrunken log2 fold change” value amounted to 0.157. In the case of RRIRRRPPRLPRPRPRPKEHPRP, the “shrunken log2 fold change” value came out at 0.345. RRIRGRPPRLPRPRPRPIILPRP: the “shrunken log2 fold change” value is 0.197. With RRIRIRPPRLPRPRPRPIPSPRP the figure was -0.193; with RRIRDRPPRLPRPRPRPCMLPRP, 1.36; with RRIRVRPPRLPRPRPRPPIAPRP, 0.322. With RRIRMRPPRLPRPRPRPKAEPRP, the “shrunken log2 fold change” value was 3.05.

Turning to RRIRGRPPRLPRPRPRPAEKPRP, the “shrunken log2 fold change” value worked out at 0.261. With RRIRRRPPRLPRPRPRPMKEPRP, the “shrunken log2 fold change” value was 0.135. For the sequence RRIRCRPPRLPRPRPRPNPSPRP, the “shrunken log2 fold change” value was determined as 0.0638. The result for RRIRSRPPRLPRPRPRPVVLPRP reads 0.124; that for RRIRIRPPRLPRPRPRPVNPPRP, 1.75; that for RRIRVRPPRLPRPRPRPPVVPRP, -0.0362. In the case of RRIRFRPPRLPRPRPRPSPKPRP, the “shrunken log2 fold change” value stood at 0.188. On to RRIRFRPPRLPRPRPRPIFNPRP, for which the “shrunken log2 fold change” value is -0.0984. Regarding RRIRDRPPRLPRPRPRPQPRPRP, the “shrunken log2 fold change” value turned out to be 0.458. In the case of RRIRMRPPRLPRPRPRPKLPPRP, the “shrunken log2 fold change” value worked out at 1.13. Consider RRIRARPPRLPRPRPRPLLWPRP, for which the “shrunken log2 fold change” value is 1.94. With RRIRIRPPRLPRPRPRPLSQPRP the figure was -0.111. RRIRYRPPRLPRPRPRPEDCPRP: the “shrunken log2 fold change” value is -0.029. On to RRIRERPPRLPRPRPRPPFWPRP, for which the “shrunken log2 fold change” value is -0.0269.
